Measurements taken from paper PMC6459735 (Journal of biomolecular structure & dynamics, 2019).

Target: the molecule itself
Assay: crystal structure

B1: human Caprin-2 fragment (residues 199-329), dimerization domain (domain or fragment)
chain: GPSSPSQRREHMLKLEAEKKKLRTILQVQYVLQNLTQEHVQKDFKGGLNGAVYLPSKELDYLIKFSKLTCPERNESLSVEDQMEQSSLYFWDLLEGSEKAVVGTTYKHLKDLLSKLLNSGYFESIPVPKNAKEKEVP
modifications: Se-Met labelled (L-seleno-methionine in place of methionine) in the crystal used for the structure
B1 was tested, and the “stoichiometry N” value was 2.
